Values of other authors as cited in article PMC4125106.

Target: insulin receptor (Drosophila melanogaster) (UniProt P09208)
Assay: competitive binding

UniProt P09208, sequence (P09208 44-1310): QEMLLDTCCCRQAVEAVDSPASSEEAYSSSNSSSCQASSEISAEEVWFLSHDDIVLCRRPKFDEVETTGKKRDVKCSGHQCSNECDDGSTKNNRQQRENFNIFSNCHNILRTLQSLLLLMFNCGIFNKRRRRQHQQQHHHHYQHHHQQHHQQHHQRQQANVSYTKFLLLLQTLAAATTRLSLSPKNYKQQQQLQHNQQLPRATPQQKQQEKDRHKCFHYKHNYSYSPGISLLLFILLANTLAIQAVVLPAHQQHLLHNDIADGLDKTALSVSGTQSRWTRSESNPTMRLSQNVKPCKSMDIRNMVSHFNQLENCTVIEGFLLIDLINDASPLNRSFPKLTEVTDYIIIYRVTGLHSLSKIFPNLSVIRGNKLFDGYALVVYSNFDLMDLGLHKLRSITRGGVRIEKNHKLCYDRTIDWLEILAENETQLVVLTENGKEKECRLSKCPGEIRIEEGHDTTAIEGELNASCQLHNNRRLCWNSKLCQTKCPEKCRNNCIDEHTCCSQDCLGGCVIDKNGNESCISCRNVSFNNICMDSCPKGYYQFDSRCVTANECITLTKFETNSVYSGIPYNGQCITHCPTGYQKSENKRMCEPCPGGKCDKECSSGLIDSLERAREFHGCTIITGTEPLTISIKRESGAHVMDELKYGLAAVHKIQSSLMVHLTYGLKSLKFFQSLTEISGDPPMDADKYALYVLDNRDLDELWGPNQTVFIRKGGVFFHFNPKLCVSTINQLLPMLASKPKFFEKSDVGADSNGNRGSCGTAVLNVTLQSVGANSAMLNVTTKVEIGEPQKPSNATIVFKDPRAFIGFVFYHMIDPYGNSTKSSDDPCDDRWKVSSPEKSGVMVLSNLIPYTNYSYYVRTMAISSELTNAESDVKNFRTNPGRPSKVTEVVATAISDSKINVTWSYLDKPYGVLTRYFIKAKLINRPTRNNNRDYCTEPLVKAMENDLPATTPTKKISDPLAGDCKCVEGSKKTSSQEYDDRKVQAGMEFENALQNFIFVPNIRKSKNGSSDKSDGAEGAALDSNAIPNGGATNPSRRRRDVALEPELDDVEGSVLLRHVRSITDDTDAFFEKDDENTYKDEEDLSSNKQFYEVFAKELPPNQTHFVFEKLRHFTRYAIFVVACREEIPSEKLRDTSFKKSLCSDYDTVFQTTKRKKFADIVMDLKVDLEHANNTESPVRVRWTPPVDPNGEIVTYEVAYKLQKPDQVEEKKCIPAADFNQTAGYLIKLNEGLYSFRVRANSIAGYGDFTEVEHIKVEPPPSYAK

- Kd: 0.555 nM
Substance: Ilp5 (from UniProt Q7KUD5)
